Experiments:
[1] = biological target: SARS-CoV-2 nucleocapsid (N) protein, N-FL (SARS-CoV-2 (reference sequence; isolate …, UniProt P0DTC9); test: SPR
[2] = biological target: SARS-CoV N protein (SARS-CoV (strain ; reference …, UniProt P59595); test: SPR

B1: mAb nCoV396 (antibody, V domains shown)
VH: QVQLVESGGGVVQPGRSLRLSCAASGFTFSSYIMHWVRQAPGKGLEWVAVISYDGSNEAYADSVKGRFTISRDNSKNTLYLQMSSLRAEDTGVYYCARETGDYSSSWYDSWGRGTLVTVSS
VL: QLVLTQSPSASASLGASVKLTCTLSSGHSNYAIAWHQQQPEKGPRYLMKVNSDGSHTKGDGIPDRFSGSSSGAERYLTISSLQSEDEADYYCQTWGTGIQVFGGGTKLTVL
Q: With B1 as the binder, how does the Kd [1] read?
A: Its Kd is 1.02 nM.

Q: And the Kd [2]?
A: The Kd was 7.4 nM.

Reference: paper doi:10.1101/2020.09.10.292318 (bioRxiv, 2020)
